{"source": "patent US20110117206A1", "about": "“PHOSPHOPEPTIDES AND USE OF THE SAME” (PLANT BIOSCIENCE LIMITED, priority 2008, published 2011)", "key": {"[1]": {"test": "Partition of salts by ultrafiltration and ion equilibria model of nanocluster solutions", "type": "physicochemical", "conditions": "nanocluster solution at pH 7.0", "method": "Nanocluster solutions of the Ca-free OPNmix in the Mg-free Buffer A were prepared by the urea/urease method with a pH between 5.0 and 7.5. They were allowed to equilibrate before ultrafiltration through Vivaspin 0.5 ml concentrators (Product VS0101 with a molecular weight cut off of 10,000 Da, Vivascience AG, Germany) using a centripetal field of 5000×g for 15 min. […] The ion activity product in the ultrafiltrates were calculated at each pH for a range of y values in order to find the value that was independent of pH.\nIn addition to the work with the OPNmix sample, a single determination was made of the partition of salts in a nanocluster solution at pH 7.0 prepared with the pure OPN 1-149 peptide."}, "[2]": {"test": "Stability and reconstitution of nanocluster solutions (urea/urease method)", "type": "physicochemical", "conditions": "in the original volume of water; clear solution, nanocluster size unchanged", "procedure": "Nanoclusters were prepared by the urea/urease method, as discussed above and as known in the art (Holt, C., Wahlgren, N. M. & Drakenberg, T. (1996). Ability of a beta-casein phosphopeptide to modulate the precipitation of calcium phosphate by forming amorphous dicalcium phosphate nanoclusters. Biochemical Journal 314, 1035-1039) but wherein the phosphopeptide was provided by either the OPNmix, discussed above, or fractions from the gel filtration separation. Typically, an OPNmix sample (25 mg) was dissolved in 1 ml of water and dialysed overnight against 500 ml of 1 mM EDTA followed by exhaustive dialysis against deionised water to remove Ca ions. The Ca-free peptides were recovered by freeze drying.\nAn initial under-saturated solution of salts at pH 5 with the composition 22 mM Ca(NO3)2, 20 mM KH2PO4, 36 mM KNO3 and 1.5 mM NaN3 (Mg-free Buffer A) was used to dissolve the peptide. Sufficient urea (0-30 mM) was added from a stock solution of 200 mM to give the desired final pH after hydrolysis with 2 units of urease from Canavalia ensiformis (Calbiochem product no. 666133). These conditions allowed the pH to rise to within 0.004 units of the target value within a few minutes. […]"}, "[3]": {"test": "Ca2+ binding isotherm (Ca ion selective electrode) fitted with semi-empirical binding model", "conditions": "6.4 = high affinity dianionic phosphoseryl sites; listed as OPN peptide", "text": "To model the chemical species in the OPN 1-149 nanocluster solution requires the calculation of Ca ion binding to the free peptide at any pH in the range 5.0-8.0. A semi-empirical model was used to describe the binding isotherms obtained previously for the β-casein 1-25 phosphopeptide in this pH range and the same model was adapted to fit the binding isotherm of OPN 1-149 measured at pH 7.0. The rescaled model was then used to predict binding at any other value of the pH. Binding of Ca ions to the β-casein 1-25 peptide is predominantly to 4 phosphorylated residues and, to a lesser extent, to 7 Glu residues and the C-terminus.\nFitting of the experimental isotherms was done to an equation of the form\nwhere the summation is over all binding sites with Ca ion association constants Ka,i. The function Ni(pH) describes the number of sites of type i as a function of pH and φi is the degree of phosphorylation. It was assumed, that all the phosphorylated sites had the average degree of phosphorylation φ. The number of dianionic phosphoseryl sites at a given pH is given by\nThe binding behaviour of β-casein has shown that one Ca ion is bound much more strongly than the rest, so the model for binding to the phosphate dianionic groups allowed for two pKs and two Ca ion association constants. The phosphorylated sites have a reduced affinity for Ca ions when they become protonated and were treated as having the same low affinity as the carboxyl groups. […]\nThe Ca^2+ binding isotherm of peptides recovered from fraction F3a was determined by measuring the concentration of free Ca ions with a Ca ion selective electrode after successive small additions of a stock solution of 100 mM Ca(NO3)2 to a solution containing 25 mg ml^−1 of F3a, buffered to pH 7.0 with 20 mM P, and 50 mM KNO3. […] The calculated OPN 1-149 isotherm was obtained by a separate fitting of the single isotherm employing a model with two pKs and association constants but keeping as many as possible of the constants from the casein model."}}}
{"substance": "OPN 1-149: N-terminal osteopontin phosphopeptide fragment from bovine milk, probably formed by plasmin; gel filtration fraction F3a", "values": [{"measurement": "ultrafiltrate concentration of Ca, experimental", "setting": "[1]", "value": 1.4, "unit": "mM"}, {"measurement": "ultrafiltrate concentration of Ca^2+, experimental", "setting": "[1]", "value": 1.1, "unit": "mM"}, {"measurement": "ultrafiltrate concentration of Pi, experimental", "setting": "[1]", "value": 12.1, "unit": "mM"}, {"measurement": "dissolution of freeze-dried nanocluster powder", "setting": "[2]", "value": "dissolve virtually instantly"}, {"measurement": "pKs fitted to the OPN 1-149 isotherm", "setting": "[3]", "value": 6.4}]}
